From US10125171 (APELLIS PHARMACEUTICALS, dated 2018)

Molecular target: human complement component C3 (human, UniProt P01024 23-1663)
Assay: cell-based or functional assay

human complement component C3, sequence (P01024 23-1663 limits assumed): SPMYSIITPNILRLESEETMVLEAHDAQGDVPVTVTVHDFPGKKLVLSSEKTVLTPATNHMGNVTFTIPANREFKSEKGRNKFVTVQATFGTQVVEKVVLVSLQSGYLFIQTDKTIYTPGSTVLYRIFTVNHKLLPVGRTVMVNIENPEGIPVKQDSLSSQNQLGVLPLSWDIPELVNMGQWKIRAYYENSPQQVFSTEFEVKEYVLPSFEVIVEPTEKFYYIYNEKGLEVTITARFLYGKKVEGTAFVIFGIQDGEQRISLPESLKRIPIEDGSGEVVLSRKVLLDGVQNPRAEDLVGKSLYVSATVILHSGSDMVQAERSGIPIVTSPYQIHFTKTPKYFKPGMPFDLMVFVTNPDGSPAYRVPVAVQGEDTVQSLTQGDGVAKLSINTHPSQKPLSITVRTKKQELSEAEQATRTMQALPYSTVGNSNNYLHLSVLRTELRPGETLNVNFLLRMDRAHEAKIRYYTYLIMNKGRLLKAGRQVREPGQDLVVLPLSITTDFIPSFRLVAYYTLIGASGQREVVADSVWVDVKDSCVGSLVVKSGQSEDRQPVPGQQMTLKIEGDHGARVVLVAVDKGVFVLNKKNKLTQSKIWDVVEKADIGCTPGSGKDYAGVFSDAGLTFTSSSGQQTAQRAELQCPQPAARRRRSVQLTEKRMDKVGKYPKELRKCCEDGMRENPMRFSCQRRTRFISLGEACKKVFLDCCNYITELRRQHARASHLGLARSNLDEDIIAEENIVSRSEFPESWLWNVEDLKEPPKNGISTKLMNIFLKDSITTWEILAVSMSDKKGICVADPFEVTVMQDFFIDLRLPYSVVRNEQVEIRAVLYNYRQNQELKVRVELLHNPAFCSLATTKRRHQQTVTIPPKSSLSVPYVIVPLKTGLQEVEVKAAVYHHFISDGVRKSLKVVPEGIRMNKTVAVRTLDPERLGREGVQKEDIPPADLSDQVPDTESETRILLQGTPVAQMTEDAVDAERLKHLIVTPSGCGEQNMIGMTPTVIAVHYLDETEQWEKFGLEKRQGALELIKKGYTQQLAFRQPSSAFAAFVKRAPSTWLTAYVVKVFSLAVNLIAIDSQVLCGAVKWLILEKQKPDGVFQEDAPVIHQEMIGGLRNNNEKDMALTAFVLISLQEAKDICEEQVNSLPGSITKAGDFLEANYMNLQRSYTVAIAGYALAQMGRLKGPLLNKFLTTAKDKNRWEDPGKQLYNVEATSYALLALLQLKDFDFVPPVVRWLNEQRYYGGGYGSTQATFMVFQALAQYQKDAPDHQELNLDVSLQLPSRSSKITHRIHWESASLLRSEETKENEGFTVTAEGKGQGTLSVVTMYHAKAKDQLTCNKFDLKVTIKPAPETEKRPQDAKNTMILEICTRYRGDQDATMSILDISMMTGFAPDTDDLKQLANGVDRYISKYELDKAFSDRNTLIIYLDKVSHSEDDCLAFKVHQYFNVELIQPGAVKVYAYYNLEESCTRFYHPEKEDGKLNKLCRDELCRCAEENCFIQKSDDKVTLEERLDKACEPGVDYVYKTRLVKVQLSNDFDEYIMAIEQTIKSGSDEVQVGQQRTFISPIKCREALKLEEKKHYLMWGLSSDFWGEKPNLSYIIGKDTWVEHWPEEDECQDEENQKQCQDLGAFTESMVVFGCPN

IC50 on a molar basis (corrected for 7.5 CA28 moieties per molecule), classical complement inhibition assay (C3b deposition ELISA, human plasma) [µM]	activity relative to CA28 on a molar basis, classical complement inhibition assay [%]	complement inhibiting activity relative to CA28 on a molar basis	Binder
~0.26	–	–	ICVWQDWGAHRCTK (N-terminal acetyl; 1-methyl-tryptophan at position 4; disulfide Cys2-Cys12; AEEAc spacer between Thr13 and the C-terminal Lys; Lys side chain coupled to one arm of an eight-arm 40 kD PEG (hexaglycerol octa(succinimidyloxyglutaryl)polyoxyethylene); C-terminal amide) [(CA28-AEEAc)8-PEG40k]
–	~30	~30 % of the activity of CA28	ICVWQDWGAHRCTK (N-terminal acetyl; 1-methyl-tryptophan at position 4; disulfide Cys2-Cys12; AEEAc (8-amino-3,6-dioxaoctanoic acid) spacer between Thr13 and the C-terminal Lys; linear monofunctional 30 kD PEG coupled (NHS ester) to the Lys side chain; C-terminal amide) [CA28-AEEAc-Lys-(PEG30k)]
–	~30	~30 % of the activity of CA28	ICVWQDWGAHRCTK (N-terminal acetyl; 1-methyl-tryptophan at position 4; disulfide Cys2-Cys12; AEEAc (8-amino-3,6-dioxaoctanoic acid) spacer between Thr13 and the C-terminal Lys; linear monofunctional 40 kD PEG coupled (NHS ester) to the Lys side chain; C-terminal amide) [CA28-AEEAc-Lys-(PEG40k)]
